Among the data in article PMC5095173, “Disulfide-activated protein kinase G Iα regulates cardiac diastolic relaxation and fine-tunes the Frank–Starling response” (Nature Communications, 2016) are stoichiometry N values, retold here.

For the experiment, the target named is T1, phospholamban (mouse myocardium) (mouse (endogenous in mouse heart)), P61014.
T1 chain: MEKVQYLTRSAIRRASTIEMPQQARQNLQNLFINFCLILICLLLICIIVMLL
Description: SDS-PAGE of samples not boiled, with immunoblot; mouse heart homogenate, samples not boiled before western blotting for total PLN; WT and C42S PKGIα KI hearts. To be noted: remark: other sources report otherwise. In general terms: In western blotting, separated proteins are transferred to a membrane and probed.

B1: phospholamban (mouse myocardium), P61014 1-52 (natural protein)
chain: MEKVQYLTRSAIRRASTIEMPQQARQNLQNLFINFCLILICLLLICIIVMLL
Broadly, the stoichiometry N is a count of units in the complex or per binding partner. In turn, B1 gave a stoichiometry N of 5.
